Reference: IntAct's records for PubMed 18715871

B1: Serine/threonine-protein phosphatase 4 catalytic subunit (Homo sapiens), P60510 (parent)
chain: MAEISDLDRQIEQLRRCELIKESEVKALCAKAREILVEESNVQRVDSPVTVCGDIHGQFYDLKELFRVGGDVPETNYLFMGDFVDRGFYSVETFLLLLALKVRYPDRITLIRGNHESRQITQVYGFYDECLRKYGSVTVWRYCTEIFDYLSLSAIIDGKIFCVHGGLSPSIQTLDQIRTIDRKQEVPHDGPMCDLLWSDPEDTTGWGVSPRGAGYLFGSDVVAQFNAANDIDMICRAHQLVMEGYKWHFNETVLTVWSAPNYCYRCGNVAAILELDEHLQKDFIIFEAAPQETRGIPSKKPVADYFL
partner: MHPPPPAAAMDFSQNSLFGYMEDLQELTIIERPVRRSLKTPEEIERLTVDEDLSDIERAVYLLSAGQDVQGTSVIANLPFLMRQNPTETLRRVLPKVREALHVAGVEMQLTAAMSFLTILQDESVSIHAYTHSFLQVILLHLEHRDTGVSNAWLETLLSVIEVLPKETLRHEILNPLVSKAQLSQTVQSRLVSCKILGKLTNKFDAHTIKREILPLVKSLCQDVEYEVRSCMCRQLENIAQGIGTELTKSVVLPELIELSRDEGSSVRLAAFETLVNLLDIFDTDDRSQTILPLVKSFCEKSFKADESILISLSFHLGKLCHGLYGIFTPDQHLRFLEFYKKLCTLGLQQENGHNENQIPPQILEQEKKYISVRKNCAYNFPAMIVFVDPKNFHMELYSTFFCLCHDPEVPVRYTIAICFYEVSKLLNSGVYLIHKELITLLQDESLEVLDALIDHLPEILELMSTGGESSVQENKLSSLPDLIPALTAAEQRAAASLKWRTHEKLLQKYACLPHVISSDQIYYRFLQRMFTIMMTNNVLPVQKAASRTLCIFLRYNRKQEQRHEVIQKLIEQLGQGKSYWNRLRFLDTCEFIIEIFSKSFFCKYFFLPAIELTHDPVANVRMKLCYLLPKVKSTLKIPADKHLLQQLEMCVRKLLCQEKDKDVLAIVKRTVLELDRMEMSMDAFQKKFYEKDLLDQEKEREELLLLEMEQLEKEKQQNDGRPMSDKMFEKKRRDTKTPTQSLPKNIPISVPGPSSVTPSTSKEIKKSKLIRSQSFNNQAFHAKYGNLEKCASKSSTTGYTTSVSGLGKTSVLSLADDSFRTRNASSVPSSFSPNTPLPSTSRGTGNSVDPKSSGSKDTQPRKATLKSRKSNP
B2: Serine/threonine-protein phosphatase 4 catalytic subunit (Homo sapiens), P60510 (parent)
chain: B1 chain
partner: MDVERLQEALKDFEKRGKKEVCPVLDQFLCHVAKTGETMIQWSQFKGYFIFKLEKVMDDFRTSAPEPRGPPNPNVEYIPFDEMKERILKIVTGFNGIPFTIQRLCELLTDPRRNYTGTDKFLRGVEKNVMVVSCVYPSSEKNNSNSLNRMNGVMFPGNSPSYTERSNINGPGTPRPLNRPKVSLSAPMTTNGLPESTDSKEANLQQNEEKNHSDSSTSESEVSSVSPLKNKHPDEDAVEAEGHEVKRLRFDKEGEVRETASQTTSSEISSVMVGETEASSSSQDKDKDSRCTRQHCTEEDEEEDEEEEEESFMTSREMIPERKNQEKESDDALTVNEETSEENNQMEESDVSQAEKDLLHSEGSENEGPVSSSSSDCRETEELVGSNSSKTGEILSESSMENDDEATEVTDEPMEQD
B3: Serine/threonine-protein phosphatase 4 regulatory subunit 4 (Homo sapiens), Q6NUP7 (parent)
chain: B1 partner
partner: B1 chain

Variants of: B1
Settings: with pp4r4_human PPP4R4, Q6NUP7

| effect of a mutation on the interaction | Variant |
| --- | --- |
| disrupting interaction | MAEISDLDRQIEQLRRCELIKESEVKALCAKAREILVEESNVQRVDSPVTVCGDIHGQFYDLKELFRVGGDVPETNYLFMGDFVDRGFYSVETFLLLLALKVRYPDRITLIRGNHESRQITQVYGFYDECLRKYGSVTVWRYCTEIFDYLSLSAIIDGKIFCVHGGLSPSIQTLDQIRTIDRKQEVPHDGPMCDLLWSDPEDTTGWGVSPRGAGYLFGSDVVAQFNAANDIDMICRAHQLVMEGYKWHFNETVLTVWSAPNYCYRCGNVAAILELDKHLQKDFIIFEAAPQETRGIPSKKPVADYFL [E277K] |
| disrupting interaction | MAEISDLDRQIEQLRRCELIKESEVKALCAKAREILVEESNVQRVDSPVTVCGDIHGQFYDLKKLFRVGGDVPETNYLFMGDFVDRGFYSVETFLLLLALKVRYPDRITLIRGNHESRQITQVYGFYDECLRKYGSVTVWRYCTEIFDYLSLSAIIDGKIFCVHGGLSPSIQTLDQIRTIDRKQEVPHDGPMCDLLWSDPEDTTGWGVSPRGAGYLFGSDVVAQFNAANDIDMICRAHQLVMEGYKWHFNETVLTVWSAPNYCYRCGNVAAILELDEHLQKDFIIFEAAPQETRGIPSKKPVADYFL [E64K] |
| decreasing interaction | MAEISDLDRQIEQLRRCELIKESEVKALCAKAREILVEESNVQRVDSPVTVCGDIHGQFYDLKELFRVGGDVPETDYLFMGDFVDRGFYSVETFLLLLALKVRYPDRITLIRGNHESRQITQVYGFYDECLRKYGSVTVWRYCTEIFDYLSLSAIIDGKIFCVHGGLSPSIQTLDQIRTIDRKQEVPHDGPMCDLLWSDPEDTTGWGVSPRGAGYLFGSDVVAQFNAANDIDMICRAHQLVMEGYKWHFNETVLTVWSAPNYCYRCGNVAAILELDEHLQKDFIIFEAAPQETRGIPSKKPVADYFL [N76D] |
| decreasing interaction | MAEISDLDRQIEQLRRCELIKESEVKALCAKAREILVEKSNVQRVDSPVTVCGDIHGQFYDLKELFRVGGDVPETNYLFMGDFVDRGFYSVETFLLLLALKVRYPDRITLIRGNHESRQITQVYGFYDECLRKYGSVTVWRYCTEIFDYLSLSAIIDGKIFCVHGGLSPSIQTLDQIRTIDRKQEVPHDGPMCDLLWSDPEDTTGWGVSPRGAGYLFGSDVVAQFNAANDIDMICRAHQLVMEGYKWHFNETVLTVWSAPNYCYRCGNVAAILELDEHLQKDFIIFEAAPQETRGIPSKKPVADYFL [E39K] |
| decreasing interaction | MAEISDLDRQIEQLRRCELIKESEVKALCAKAREILVEESNVQRVDSPVTVCGDIHGQFYDLKELFRVGGDVPETNYLFMGDFVDRGFYSVETFLLLLALKVRYPDEITLIRGNHESRQITQVYGFYDECLRKYGSVTVWRYCTEIFDYLSLSAIIDGKIFCVHGGLSPSIQTLDQIRTIDRKQEVPHDGPMCDLLWSDPEDTTGWGVSPRGAGYLFGSDVVAQFNAANDIDMICRAHQLVMEGYKWHFNETVLTVWSAPNYCYRCGNVAAILELDEHLQKDFIIFEAAPQETRGIPSKKPVADYFL [R107E] |

Variants of: B2
Settings: with pp4r2_human PPP4R2, Q9NY27

| effect of a mutation on the interaction | Variant |
| --- | --- |
| disrupting interaction | MAEISDLDRQIEQLRRCELIKESEVKALCAKAREILVEESNVQRVDSPVTVCGDIHGQFYDLKELFRVGGDVPETNYLFMGDFVDRGFYSVETFLLLLALKVRYPDEITLIRGNHESRQITQVYGFYDECLRKYGSVTVWRYCTEIFDYLSLSAIIDGKIFCVHGGLSPSIQTLDQIRTIDRKQEVPHDGPMCDLLWSDPEDTTGWGVSPRGAGYLFGSDVVAQFNAANDIDMICRAHQLVMEGYKWHFNETVLTVWSAPNYCYRCGNVAAILELDEHLQKDFIIFEAAPQETRGIPSKKPVADYFL [R107E] |
| disrupting interaction | MAEISDLDRQIEQLRRCELIKESEVKALCAKAREILVEESNVQRVDSPVTVCGDIHGQFYDLKELFRVGGDVPETDYLFMGDFVDRGFYSVETFLLLLALKVRYPDRITLIRGNHESRQITQVYGFYDECLRKYGSVTVWRYCTEIFDYLSLSAIIDGKIFCVHGGLSPSIQTLDQIRTIDRKQEVPHDGPMCDLLWSDPEDTTGWGVSPRGAGYLFGSDVVAQFNAANDIDMICRAHQLVMEGYKWHFNETVLTVWSAPNYCYRCGNVAAILELDEHLQKDFIIFEAAPQETRGIPSKKPVADYFL [N76D] |
| decreasing interaction | MAEISDLDRQIEQLRRCELIKESEVKALCAKAREILVEESNVQRVDSPVTVCGDIHGQFYDLKELFRVGGDVPETNYLFMGDFVDRGFYSVETFLLLLALKVRYPDRITLIRGNHESRQITQVYGFYDECLRKYGSVTVWRYCTEIFDYLSLSAIIDGKIFCVHGGLSPSIQTLDQIRTIDRKQEVPHDGPMCDLLWSDPEDTTGWGVSPRGAGYLFGSDVVAQFNAANDIDMICRAHQLVMEGYKWHFNETVLTVWSAPNYCYRCGNVAAILELDKHLQKDFIIFEAAPQETRGIPSKKPVADYFL [E277K] |
| disrupting interaction | MAEISDLDRQIEQLRRCELIKESEVKALCAKAREILVEKSNVQRVDSPVTVCGDIHGQFYDLKELFRVGGDVPETNYLFMGDFVDRGFYSVETFLLLLALKVRYPDRITLIRGNHESRQITQVYGFYDECLRKYGSVTVWRYCTEIFDYLSLSAIIDGKIFCVHGGLSPSIQTLDQIRTIDRKQEVPHDGPMCDLLWSDPEDTTGWGVSPRGAGYLFGSDVVAQFNAANDIDMICRAHQLVMEGYKWHFNETVLTVWSAPNYCYRCGNVAAILELDEHLQKDFIIFEAAPQETRGIPSKKPVADYFL [E39K] |

Variants of: B3
Settings: with pp4c_human PPP4C

| effect of a mutation on the interaction | Variant |
| --- | --- |
| disrupting interaction | R501D |
| disrupting interaction | V618D |
| disrupting interaction | V618A |
